Read-outs that look alike come from different tables or passages of the source. Each block holds one substance with its values, some of them ahead of it. Positions of bridges follow the written chain, without caps; N, C: chain ends. No end group written: not given here.
How the values were obtained:
rat INS-1 β-cells [1] = test: Alamar Blue reduction β-cell viability assay; assay type: cell-based; settings: for Toxicity to β-cells over the time course of aggregation: 20 μM peptide solutions, 14 μM final on cells, aliquots at different time points
Method: Rat INS-1 β-cells (832/13) were generously provided by Professor Newgard (Duke University). β-cells were grown in RPMI 1640 supplemented with 10% fetal bovine serum (FBS), 11 mM glucose, 10 mM Hepes, 2 mM L-glutamine, 1 mM sodium pyruvate, 50 µM β-mercaptoethanol, 100 U/ml penicillin, and 100 U/ml streptomycin.
(§1) Synthetic amyloidogenic and non-amyloidogenic IAPP peptides were dissolved in 1,1,1,3,3,3-Hexafluoro-2-propanol (HFIP) for 5–12 h, aliquoted and lyophilized to a dry powder. Amyloid formation was initiated by dissolving dry HFIP-treated peptides in 20 mM Tris HCl buffer (time-zero) at pH 7.4. Samples were incubated at 25°C, unless indicated otherwise. Aliquots were removed from the peptide solutions at designated time points over the course of amyloid formation or aggregation as schematically depicted in Figure 2A. The kinetic species populated within each of the three phases of amyloid formation were concurrently characterized by biophysical methods and biological assays assessing changes in metabolism, oxidative stress, inflammation and apoptosis using INS-1 β-cells and murine pancreatic islets.
Rat INS-1 β-cells were seeded at a density of 30,000 cells per well in 96-well plates 12–16 h prior to start of experiments. Hand purified islets were seeded at a density of 25–30 islets per well in 96-well plates. Amyloid formation and aggregation assays were initiated by dissolving IAPP peptides (15 μM to 80 μM stock solutions for dose-response experiments) in 20 mM Tris HCl (pH 7.4), unless stated otherwise. Peptide solutions were incubated at 25°C, or as indicated. Aliquots were removed from amyloid formation and aggregation assays at different time points and applied exogenously to rat INS-1 β-cells (5 h incubation) or murine pancreatic islets (10 h incubation). β-cells and islets were photographed by light microscopy immediately before and after toxicity experiments to assess changes in morphology. The final range of peptide concentrations examined in β-cell and islet toxicity assays after diluting IAPP peptide solutions into cell or islet culture was 10.5 μM to 56 μM in dose-response studies, unless indicated otherwise. Cell viability was measured by Alamar Blue reduction assays, which detect changes in metabolic function, and by morphological changes detected by light microscopy. Alamar Blue was diluted ten-fold in culture medium and incubated on β-cells or islets for 5 h at 37°C. Fluorescence (530 nm excitation and 590 nm emission) was measured with a Beckman Coulter DTX880 plate reader. Values were calculated relative to control β-cells or islets treated with buffer alone. Toxicity was defined as <80% viability. Light microscopy images were captured using an Olympus BX-61 light microscope.

[2] = Amyloid formation kinetics (thioflavin-T binding, TEM); assay type: physicochemical; settings: 20 mM Tris HCl pH 7.4, 25°C; for Amyloid formation: thioflavin-T binding and TEM, 20 µM peptide (3xL-IAPP 40 µM), I26P-IAPP over 35+ h
Method: as §1
Aliquots (100 μL) were removed from amyloid formation and aggregation assays at different time points, and added to 96-well plates containing 8 μL of a 1 mM thioflavin-T solution. Fluorescence was measured using a Beckman Coulter DTX880 plate reader (445 nm excitation and 485 nm emission). Final solution conditions contained […] and 74 µM thioflavin-T (pH 7.4).
Aliquots (4 µL) were removed from amyloid formation or aggregation assays at different time points and placed on a carbon-coated 200-mesh copper grid and negatively stained with saturated uranyl acetate. The samples were imaged with a Philips CM12 or a FEI BioTwinG2 transmission electron microscope.

[3] = Photochemical induced cross-linking / SDS-PAGE oligomer distribution; assay type: physicochemical; settings: 20 µM peptide, 20 mM Tris HCl pH 7.4, 25°C, at time points of h-IAPP toxicity, supernatant after 20,000 g 20 min, Tris(bipyridyl)Ru(II) cross-linking, silver stain
Method: Samples were cross-linked using Tris(bipyridyl)Ru(II), in the presence of ammonium persulfate. IAPP peptides were incubated for indicated times in 20 mM Tris HCl (pH 7.4) at 25°C. Aliquots were removed at indicated time points, centrifuged at 20,000 g for 20 min and added to the cross-linking solution. Samples contained a final concentration of 20 µM peptide, 70 µM Tris(bipyridyl)Ru(II) and 1.4 mM ammonium persulfate. Samples were illuminated with a 150 W incandescent bulb for 5 s, unless otherwise noted. The reaction was quenched by the addition of β-mercaptoethanol. The products were separated by SDS polyacrylamide gel electrophoresis using a 10–20% Tris-tricine gradient gel. Oligomer bands were visualized by silver staining (SilverXpress, Invitrogen). Quantitative analysis was carried out using GelAnalyzer software version 2010a. The relative intensity of each band was calculated by first correcting the baseline, then integrating the area under each peak.

[4] = ref Wang et al., 2014b; cited from earlier work
From the text: (§2) IAPP is expressed by all mammals examined to date; the amino acid sequences are ~80% conserved between species, however not all IAPP sequences are toxic or form amyloid in vivo (Figure 5—figure supplement 1) ([Betsholtz et al., 1989]; [Cao et al., 2013b]; [Westermark et al., 1990]).

rat INS-1 β-cells [5] = settings: ref Wang et al., 2014b; cited from earlier work
From the text: as §2

[6] = Solubility assay by ultracentrifugation; assay type: physicochemical; settings: 20,000 g for 20 min; UV absorbance at 215 nm
Method: Samples of toxic lag phase intermediates or amyloid fibrils were ultracentrifuged for 20 min (20,000 g) and the protein in the soluble fraction (the supernatant) was measured by UV absorbance (215 nm) before and after ultracentrifugation using a DU 730 Life Science UV/Vis spectrophotometer (Beckman Coulter).

[7] = aliquots from peptide in 20 mM Tris HCl pH 7.4, 25°C, 14 μM (h-IAPP) or 28 μM (3xL-IAPP) final, 5 h on cells, toxicity defined as <80% viability
[8] = 1:1 addition to h-IAPP (40 µM each)

Substance: 3xL-IAPP: triple mutant of h-IAPP that lacks aromatic residues (KCNTATCATQRLANLLVHSSNNLGAILSSTNVGSNTL; ends and bridges not checked; cysteine pairing not given here; UniProt P10997 34-70, looked up, variant F15L F23L Y37L)
β-cell viability at time point of maximum toxicity (rat INS-1 β-cells [1]; 40 μM peptide solution (28 μM final on cells), Alamar Blue, 5 h on INS-1 β-cells, relative to buffer treated cells, mean, three replicate experiments): 67%
Toxicity of amyloid fibrils (saturation phase) to β-cells (rat INS-1 β-cells [1]; [7]): not toxic
Toxicity of lag phase intermediates to β-cells (rat INS-1 β-cells [1]; [7]): clearly still toxic
Amyloid formation [2]: form amyloid more slowly than the human peptide

Effect on T50 of h-IAPP amyloid formation (time to 50% of total thioflavin-T signal change) [2, 8]: increased by a factor of two
Effect on length of h-IAPP lag phase (time to 10% of total thioflavin-T signal change) [2, 8]: increased by a factor of two
Substance: I26P-IAPP: I26P point mutant of h-IAPP; inhibitor of h-IAPP amyloid formation (KCNTATCATQRLANFLVHSSNNFGAPLSSTNVGSNTY-NH2; disulfide 2-7; ends not checked; UniProt P10997 34-70, looked up, variant I26P)
Distribution of oligomers in solution [3]: low order oligomers
Toxicity to β-cells over the time course of aggregation (rat INS-1 β-cells [1]; Alamar Blue, 5 h on cells): not toxic at any time point
Effect on duration of h-IAPP cytotoxicity (rat INS-1 β-cells [1]; 1:1 addition to h-IAPP, 80 µM total peptide, 56 µM final on cells, time-resolved Alamar Blue): increases the duration of toxicity proportionally
Amyloid formation [2]: non-amyloidogenic

Substance: TM-IAPP: H18R, G24P, I26P triple mutant of h-IAPP (KCNTATCATQRLANFLVRSSNNFPAPLSSTNVGSNTY-NH2; disulfide 2-7; ends not checked; UniProt P10997 34-70, looked up, variant H18R G24P I26P)
Distribution of oligomers in solution [3]: oligomerizes
Amyloid formation [4]: non-amyloidogenic
Toxicity (rat INS-1 β-cells [5]): non-toxic

Substance: human islet amyloid polypeptide
upper limit of β-sheet content: < 15%

Substance: r-IAPP: non-toxic, non-amyloidogenic rat IAPP, negative control [reference compound]
Solubility under ultracentrifugation conditions (control) [6]: soluble
Distribution of oligomers in solution [3]: monomers to hexamers
Toxicity to β-cells over the time course of aggregation (rat INS-1 β-cells [1]; Alamar Blue, 5 h on cells): not toxic at any time point
Toxicity to β-cells, dose-response (rat INS-1 β-cells [1]; 28, 56 and 84 µM peptide prepared directly in cell culture medium, 24, 48 or 96 h on cells, Alamar Blue): No detectable toxicity
Toxicity over extended time course (rat INS-1 β-cells [1]; 28 day time course, data not shown): not toxic over a 28 day time course
Amyloid formation [2]: does not form amyloid fibrils

From publication PMC4940161, “Time-resolved studies define the nature of toxic IAPP intermediates, providing insight for anti-amyloidosis therapeutics” (eLife, 2016)
